{"source": "paper doi:10.1101/2025.10.16.682859", "about": "(bioRxiv, 2025)", "proteins": {"B1": {"name": "human asparagine synthetase (ASNS) (enzyme)", "chain": "CGIWALFGSDDCLSVQCLSAMKIAHRGPDAFRFENVNGYTNCCFGFHRLAVVDPLFGMQPIRVKKYPYLWLCYNGEIYNHKKMQQHFEFEYQTKVDGEIILHLYDKGGIEQTICMLDGVFAFVLLDTANKKVFLGRDTYGVRPLFKAMTEDGFLAVCSEAKGLVTLKHSATPFLKVEPFLPGHYEVLDLKPNGKVASVEMVKYHHCRDVPLHALYDNVEKLFPGFEIETVKNNLRILFNNAVKKRLMTDRRIGCLLSGGLDSSLVAATLLKQLKEAQVQYPLQTFAIGMEDSPDLLAARKVADHIGSEHYEVLFNSEEGIQALDEVIFSLETYDITTVRASVGMYLISKYIRKNTDSVVIFSGEGSDELTQGYIYFHKAPSPEKAEEESERLLRELYLFDVLRADRTTAAHGLELRVPFLDHRFSSYYLSLPPEMRIPKNGIEKHLLRETFEDSNLIPKEILWRPKEAFSDGITSVKNSWFKILQEYVEHQVDDAMMANAAQKFPFNTPKTKEGYYYRQVFERHYPGRADWLSHYWMPKWINATDPSARTLTHYKSAVKA"}}, "target": "the molecule itself", "experiment": "cryo-EM structure", "data": [{"protein": "B1", "values": [{"measurement": "stoichiometry N", "result": 2}]}]}
